Experimental data: paper PMC3556779

Biological target: FKBP1A (UniProt P62942)
Experiment: co-precipitation from transfected Jurkat cells
Conditions: reference: WT TGFβRI; sites T200

TGFβRI (from UniProt P36897) T200V TGFβRI
binding against the reference: stronger
